This passage reports Ki and Kd results from PMC3472523 (2012).

T1: Mcl-1 (Mus musculus, UniProt P97287)
T1 chain: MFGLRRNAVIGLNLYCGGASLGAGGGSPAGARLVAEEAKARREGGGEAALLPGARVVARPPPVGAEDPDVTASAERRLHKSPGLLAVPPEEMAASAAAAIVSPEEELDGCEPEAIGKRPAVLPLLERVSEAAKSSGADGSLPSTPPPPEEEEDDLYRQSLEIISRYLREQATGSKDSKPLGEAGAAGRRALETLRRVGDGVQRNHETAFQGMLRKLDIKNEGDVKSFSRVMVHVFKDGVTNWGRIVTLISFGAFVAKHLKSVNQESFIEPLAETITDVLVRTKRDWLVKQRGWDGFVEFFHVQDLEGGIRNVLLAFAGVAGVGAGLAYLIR

B1: Noxa peptide 5 (peptide)
chain: AACLRAIGDCVNLAQALLN
HELM: PEPTIDE1{[ac].A.A.[dC].L.R.A.I.G.D.C.V.N.L.A.Q.A.L.L.N.[am]}|CHEM1{[c1cc(-c2ccc(C[*:2])cc2)ccc1C[*:1]]}$PEPTIDE1,CHEM1,4:R3-1:R1|PEPTIDE1,CHEM1,11:R3-1:R2$$$V2.0
SMILES: CC[C@H](C)[C@@H]1NC(=O)[C@H](C)NC(=O)[C@H](CCCNC(=N)N)NC(=O)[C@H](CC(C)C)NC(=O)[C@H](NC(=O)[C@H](C)NC(=O)[C@H](C)NC(C)=O)CSCc2ccc(cc2)-c2ccc(cc2)CSC[C@@H](C(=O)N[C@H](C(=O)N[C@@H](CC(N)=O)C(=O)N[C@@H](CC(C)C)C(=O)N[C@@H](C)C(=O)N[C@@H](CCC(N)=O)C(=O)N[C@@H](C)C(=O)N[C@@H](CC(C)C)C(=O)N[C@@H](CC(C)C)C(=O)N[C@@H](CC(N)=O)C(N)=O)C(C)C)NC(=O)[C@H](CC(=O)O)NC(=O)CNC1=O
B2: Noxa peptide 4 (peptide)
chain: AACLRAIGDCVNLAQKLLN
HELM: PEPTIDE1{[ac].A.A.[dC].L.R.A.I.G.D.C.V.N.L.A.Q.K.L.L.N.[am]}|CHEM1{[c1cc(-c2ccc(C[*:2])cc2)ccc1C[*:1]]}$PEPTIDE1,CHEM1,4:R3-1:R1|PEPTIDE1,CHEM1,11:R3-1:R2$$$V2.0
SMILES: CC[C@H](C)[C@@H]1NC(=O)[C@H](C)NC(=O)[C@H](CCCNC(=N)N)NC(=O)[C@H](CC(C)C)NC(=O)[C@H](NC(=O)[C@H](C)NC(=O)[C@H](C)NC(C)=O)CSCc2ccc(cc2)-c2ccc(cc2)CSC[C@@H](C(=O)N[C@H](C(=O)N[C@@H](CC(N)=O)C(=O)N[C@@H](CC(C)C)C(=O)N[C@@H](C)C(=O)N[C@@H](CCC(N)=O)C(=O)N[C@@H](CCCCN)C(=O)N[C@@H](CC(C)C)C(=O)N[C@@H](CC(C)C)C(=O)N[C@@H](CC(N)=O)C(N)=O)C(C)C)NC(=O)[C@H](CC(=O)O)NC(=O)CNC1=O
B3: Noxa peptide 7 (peptide)
chain: AACLRRIGDCVNLRQKLLN
HELM: PEPTIDE1{[COC(=O)[*:2]].[meA].[meA].[dC].L.R.R.I.G.D.C.V.N.L.R.Q.K.L.L.N.[am]}|CHEM1{[c1cc(-c2ccc(C[*:2])cc2)ccc1C[*:1]]}$PEPTIDE1,CHEM1,4:R3-1:R1|PEPTIDE1,CHEM1,11:R3-1:R2$$$V2.0
SMILES: CC[C@H](C)[C@@H]1NC(=O)[C@H](CCCNC(=N)N)NC(=O)[C@H](CCCNC(=N)N)NC(=O)[C@H](CC(C)C)NC(=O)[C@H](NC(=O)[C@H](C)N(C)C(=O)[C@H](C)N(C)C(=O)OC)CSCc2ccc(cc2)-c2ccc(cc2)CSC[C@@H](C(=O)N[C@H](C(=O)N[C@@H](CC(N)=O)C(=O)N[C@@H](CC(C)C)C(=O)N[C@@H](CCCNC(=N)N)C(=O)N[C@@H](CCC(N)=O)C(=O)N[C@@H](CCCCN)C(=O)N[C@@H](CC(C)C)C(=O)N[C@@H](CC(C)C)C(=O)N[C@@H](CC(N)=O)C(N)=O)C(C)C)NC(=O)[C@H](CC(=O)O)NC(=O)CNC1=O
B4: Noxa peptide 3 (peptide)
chain: AACLRAIGDCVNLRQKLLN
HELM: PEPTIDE1{[ac].A.A.[dC].L.R.A.I.G.D.C.V.N.L.R.Q.K.L.L.N.[am]}|CHEM1{[c1cc(-c2ccc(C[*:2])cc2)ccc1C[*:1]]}$PEPTIDE1,CHEM1,4:R3-1:R1|PEPTIDE1,CHEM1,11:R3-1:R2$$$V2.0
SMILES: CC[C@H](C)[C@@H]1NC(=O)[C@H](C)NC(=O)[C@H](CCCNC(=N)N)NC(=O)[C@H](CC(C)C)NC(=O)[C@H](NC(=O)[C@H](C)NC(=O)[C@H](C)NC(C)=O)CSCc2ccc(cc2)-c2ccc(cc2)CSC[C@@H](C(=O)N[C@H](C(=O)N[C@@H](CC(N)=O)C(=O)N[C@@H](CC(C)C)C(=O)N[C@@H](CCCNC(=N)N)C(=O)N[C@@H](CCC(N)=O)C(=O)N[C@@H](CCCCN)C(=O)N[C@@H](CC(C)C)C(=O)N[C@@H](CC(C)C)C(=O)N[C@@H](CC(N)=O)C(N)=O)C(C)C)NC(=O)[C@H](CC(=O)O)NC(=O)CNC1=O
B5: Noxa peptide 6 (peptide)
chain: AACLRRIGDCVNLRQKLLN
HELM: PEPTIDE1{[COC(=O)[*:2]].[meA].A.[dC].L.R.R.I.G.D.C.V.N.L.R.Q.K.L.L.N.[am]}|CHEM1{[c1cc(-c2ccc(C[*:2])cc2)ccc1C[*:1]]}$PEPTIDE1,CHEM1,4:R3-1:R1|PEPTIDE1,CHEM1,11:R3-1:R2$$$V2.0
SMILES: CC[C@H](C)[C@@H]1NC(=O)[C@H](CCCNC(=N)N)NC(=O)[C@H](CCCNC(=N)N)NC(=O)[C@H](CC(C)C)NC(=O)[C@H](NC(=O)[C@H](C)NC(=O)[C@H](C)N(C)C(=O)OC)CSCc2ccc(cc2)-c2ccc(cc2)CSC[C@@H](C(=O)N[C@H](C(=O)N[C@@H](CC(N)=O)C(=O)N[C@@H](CC(C)C)C(=O)N[C@@H](CCCNC(=N)N)C(=O)N[C@@H](CCC(N)=O)C(=O)N[C@@H](CCCCN)C(=O)N[C@@H](CC(C)C)C(=O)N[C@@H](CC(C)C)C(=O)N[C@@H](CC(N)=O)C(N)=O)C(C)C)NC(=O)[C@H](CC(=O)O)NC(=O)CNC1=O
B6: Noxa peptide 1 (peptide)
chain: AACLRRIGDCVNLRQKLLN
HELM: PEPTIDE1{[ac].A.A.C.L.R.R.I.G.D.C.V.N.L.R.Q.K.L.L.N.[am]}|CHEM1{[c1cc(-c2ccc(C[*:2])cc2)ccc1C[*:1]]}$PEPTIDE1,CHEM1,4:R3-1:R1|PEPTIDE1,CHEM1,11:R3-1:R2$$$V2.0
SMILES: CC[C@H](C)[C@@H]1NC(=O)[C@H](CCCNC(=N)N)NC(=O)[C@H](CCCNC(=N)N)NC(=O)[C@H](CC(C)C)NC(=O)[C@@H](NC(=O)[C@H](C)NC(=O)[C@H](C)NC(C)=O)CSCc2ccc(cc2)-c2ccc(cc2)CSC[C@@H](C(=O)N[C@H](C(=O)N[C@@H](CC(N)=O)C(=O)N[C@@H](CC(C)C)C(=O)N[C@@H](CCCNC(=N)N)C(=O)N[C@@H](CCC(N)=O)C(=O)N[C@@H](CCCCN)C(=O)N[C@@H](CC(C)C)C(=O)N[C@@H](CC(C)C)C(=O)N[C@@H](CC(N)=O)C(N)=O)C(C)C)NC(=O)[C@H](CC(=O)O)NC(=O)CNC1=O
B7: Noxa peptide 2 (peptide)
chain: AACLRRIGDCVNLRQKLLN
HELM: PEPTIDE1{[ac].A.A.[dC].L.R.R.I.G.D.C.V.N.L.R.Q.K.L.L.N.[am]}|CHEM1{[c1cc(-c2ccc(C[*:2])cc2)ccc1C[*:1]]}$PEPTIDE1,CHEM1,4:R3-1:R1|PEPTIDE1,CHEM1,11:R3-1:R2$$$V2.0
SMILES: CC[C@H](C)[C@@H]1NC(=O)[C@H](CCCNC(=N)N)NC(=O)[C@H](CCCNC(=N)N)NC(=O)[C@H](CC(C)C)NC(=O)[C@H](NC(=O)[C@H](C)NC(=O)[C@H](C)NC(C)=O)CSCc2ccc(cc2)-c2ccc(cc2)CSC[C@@H](C(=O)N[C@H](C(=O)N[C@@H](CC(N)=O)C(=O)N[C@@H](CC(C)C)C(=O)N[C@@H](CCCNC(=N)N)C(=O)N[C@@H](CCC(N)=O)C(=O)N[C@@H](CCCCN)C(=O)N[C@@H](CC(C)C)C(=O)N[C@@H](CC(C)C)C(=O)N[C@@H](CC(N)=O)C(N)=O)C(C)C)NC(=O)[C@H](CC(=O)O)NC(=O)CNC1=O
B8: Noxa peptide 8 (peptide)
chain: AACLRAIGDCVNLAQALLN
HELM: PEPTIDE1{[COC(=O)[*:2]].[meA].[meA].[dC].L.R.A.I.G.D.C.V.N.L.A.Q.A.L.L.N.[am]}|CHEM1{[c1cc(-c2ccc(C[*:2])cc2)ccc1C[*:1]]}$PEPTIDE1,CHEM1,4:R3-1:R1|PEPTIDE1,CHEM1,11:R3-1:R2$$$V2.0
SMILES: CC[C@H](C)[C@@H]1NC(=O)[C@H](C)NC(=O)[C@H](CCCNC(=N)N)NC(=O)[C@H](CC(C)C)NC(=O)[C@H](NC(=O)[C@H](C)N(C)C(=O)[C@H](C)N(C)C(=O)OC)CSCc2ccc(cc2)-c2ccc(cc2)CSC[C@@H](C(=O)N[C@H](C(=O)N[C@@H](CC(N)=O)C(=O)N[C@@H](CC(C)C)C(=O)N[C@@H](C)C(=O)N[C@@H](CCC(N)=O)C(=O)N[C@@H](C)C(=O)N[C@@H](CC(C)C)C(=O)N[C@@H](CC(C)C)C(=O)N[C@@H](CC(N)=O)C(N)=O)C(C)C)NC(=O)[C@H](CC(=O)O)NC(=O)CNC1=O

Positions of bridges follow the written chain, without caps; N, C: chain ends. fluorescein = fluorescein, an N-terminal fluorescent label Some results are limits rather than exact numbers.

The target of one test is T1, Mcl-1. Nature of the test: competitive fluorescence polarization. On the technique in general: Polarisation of emitted light reports the rotation of a fluorescent probe.
As a reminder, the Ki is the dissociation constant of the complex between target and ligand, obtained from inhibition or displacement. Low readings indicate higher affinity, high ones lower affinity. In turn, B1 had a Ki of 29 nM. This counts as double-digit nanomolar.

As for B2, the Ki was 28 nM. The Ki values of the last two molecules are within 1.5-fold of each other.

B3 showed a Ki of 22 nM.

In turn, B4 showed a Ki of 23 nM. This Ki and that of the molecule before are within 1.5-fold of each other.

Molecule B5 showed a Ki of 32 nM. The Ki values of the last two molecules are within 1.5-fold of each other.

In the case of B6, the Ki worked out at 10 nM. This Ki is about 3.2-fold lower than that of the molecule before.

The molecule B7 came in with a Ki of 54 nM.

In turn, B8 showed a Ki of 22 nM.

The next test deals with Bcl-xL (Homo sapiens, UniProt Q07817). In words: fluorescence polarization.
Bcl-xL, sequence (Q07817 whole entry): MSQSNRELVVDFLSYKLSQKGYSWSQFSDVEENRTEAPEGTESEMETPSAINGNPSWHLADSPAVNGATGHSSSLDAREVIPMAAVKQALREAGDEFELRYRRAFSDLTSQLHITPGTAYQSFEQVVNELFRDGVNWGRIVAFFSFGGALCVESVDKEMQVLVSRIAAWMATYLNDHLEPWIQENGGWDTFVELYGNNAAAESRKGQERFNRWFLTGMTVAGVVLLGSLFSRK
The term Kd denotes the concentration at which binding is half-saturated. For the molecule fluorescein-AACLRRIGDCVNLRQKLLN-NH2 (linker 3-10 via biphenyl) [Fl-1 (Bph-cross-linked Noxa peptide 1)], the Kd was above 1000 nM.
